Columns and labels:
[1] = biological target: T1, N-terminal FLAG-tagged full-length human ROBO4 (pCI-FLAG-hROBO4-28) (human, UniProt Q8WZ75 28-1007); experiment: flow cytometry, HEK293 cells transfected with pCI-FLAG-hROBO4-28, antibody at 10 µg/mL, anti-mouse IgG FITC; control histogram IgG (Mouse IgG2a)
T1 construct: On transfected HEK293 cells
T1 sequence: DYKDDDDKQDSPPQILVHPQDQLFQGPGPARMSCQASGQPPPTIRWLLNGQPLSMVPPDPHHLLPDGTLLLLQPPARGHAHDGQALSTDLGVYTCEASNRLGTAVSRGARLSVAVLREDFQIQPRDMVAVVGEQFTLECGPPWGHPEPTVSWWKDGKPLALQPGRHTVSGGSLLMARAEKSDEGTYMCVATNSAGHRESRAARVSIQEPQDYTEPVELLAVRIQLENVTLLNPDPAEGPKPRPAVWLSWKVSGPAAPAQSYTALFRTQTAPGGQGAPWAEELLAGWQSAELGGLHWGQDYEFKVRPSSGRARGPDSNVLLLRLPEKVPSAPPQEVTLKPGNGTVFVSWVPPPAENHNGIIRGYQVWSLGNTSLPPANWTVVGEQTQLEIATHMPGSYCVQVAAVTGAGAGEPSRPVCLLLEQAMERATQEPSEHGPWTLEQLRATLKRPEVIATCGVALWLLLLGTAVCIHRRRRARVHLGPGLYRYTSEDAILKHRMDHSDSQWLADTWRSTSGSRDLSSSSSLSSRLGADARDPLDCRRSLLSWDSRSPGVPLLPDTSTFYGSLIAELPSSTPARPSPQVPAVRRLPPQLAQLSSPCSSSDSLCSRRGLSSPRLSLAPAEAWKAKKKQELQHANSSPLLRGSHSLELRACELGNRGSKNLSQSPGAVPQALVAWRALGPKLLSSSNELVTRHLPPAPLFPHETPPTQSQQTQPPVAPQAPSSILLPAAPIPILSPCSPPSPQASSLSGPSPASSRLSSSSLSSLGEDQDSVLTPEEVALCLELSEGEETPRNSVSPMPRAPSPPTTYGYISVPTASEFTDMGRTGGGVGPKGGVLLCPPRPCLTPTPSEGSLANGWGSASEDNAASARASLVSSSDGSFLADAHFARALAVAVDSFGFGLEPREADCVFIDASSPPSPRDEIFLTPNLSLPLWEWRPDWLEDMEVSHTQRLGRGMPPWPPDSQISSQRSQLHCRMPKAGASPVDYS
Description: HEK293 cells were inoculated at a concentration of 1.5×10⁶ cells/dish to a 60-mm dish (manufactured by Corning Inc.) and cultured overnight in a DMEM medium containing 10% FBS at 37° C. under 5% CO₂ conditions. […] On the next day, the expression vector-transfected cells were treated with TrypLE Express (manufactured by Life Technologies Corp.), washed with PBS containing 5% FBS, and then suspended in PBS containing 5% FBS. The obtained cell suspension was used in flow cytometry analysis.
Each cell suspension prepared in 4)-5-1 was centrifuged, and the supernatant was removed. Then, MAb1, a positive control Monoclonal ANTI-FLAG M2 antibody produced in mouse, or a negative control Mouse IgG2a was added at a concentration of 10 μg/mL to 2×10⁵ expression vector-transfected cells, and the resulting suspension was left standing at 4° C. for 1 hour. The cells were washed once with PBS containing 5% FBS. Then, Anti-Mouse IgG FITC conjugate diluted 1000-fold with PBS containing 5% FBS was added thereto, and the resulting suspension was left standing at 4° C. for 1 hour. […] Data was analyzed using Flowjo. The histogram of FITC fluorescence intensity was prepared. The antibody was determined to bind to a cell when the histogram of MAb1 was shifted to a stronger fluorescence intensity region compared with the histogram of the negative control Mouse IgG2a. […]

[2] = biological target: T2, N-terminal FLAG-tagged cynomolgus monkey ROBO4, cynoROBO4-1 (pCI-FLAG-cynoROBO4-1) (cynomolgus monkey, UniProt Q8WZ75 28-1007 (human entry)); experiment: flow cytometry (FC500), HEK293 cells transfected with pCI-FLAG-cynoROBO4-1, antibody at 10 µg/mL, FITC goat anti-human IgG Fc; control histogram IgG (human IgG)
T2 chain: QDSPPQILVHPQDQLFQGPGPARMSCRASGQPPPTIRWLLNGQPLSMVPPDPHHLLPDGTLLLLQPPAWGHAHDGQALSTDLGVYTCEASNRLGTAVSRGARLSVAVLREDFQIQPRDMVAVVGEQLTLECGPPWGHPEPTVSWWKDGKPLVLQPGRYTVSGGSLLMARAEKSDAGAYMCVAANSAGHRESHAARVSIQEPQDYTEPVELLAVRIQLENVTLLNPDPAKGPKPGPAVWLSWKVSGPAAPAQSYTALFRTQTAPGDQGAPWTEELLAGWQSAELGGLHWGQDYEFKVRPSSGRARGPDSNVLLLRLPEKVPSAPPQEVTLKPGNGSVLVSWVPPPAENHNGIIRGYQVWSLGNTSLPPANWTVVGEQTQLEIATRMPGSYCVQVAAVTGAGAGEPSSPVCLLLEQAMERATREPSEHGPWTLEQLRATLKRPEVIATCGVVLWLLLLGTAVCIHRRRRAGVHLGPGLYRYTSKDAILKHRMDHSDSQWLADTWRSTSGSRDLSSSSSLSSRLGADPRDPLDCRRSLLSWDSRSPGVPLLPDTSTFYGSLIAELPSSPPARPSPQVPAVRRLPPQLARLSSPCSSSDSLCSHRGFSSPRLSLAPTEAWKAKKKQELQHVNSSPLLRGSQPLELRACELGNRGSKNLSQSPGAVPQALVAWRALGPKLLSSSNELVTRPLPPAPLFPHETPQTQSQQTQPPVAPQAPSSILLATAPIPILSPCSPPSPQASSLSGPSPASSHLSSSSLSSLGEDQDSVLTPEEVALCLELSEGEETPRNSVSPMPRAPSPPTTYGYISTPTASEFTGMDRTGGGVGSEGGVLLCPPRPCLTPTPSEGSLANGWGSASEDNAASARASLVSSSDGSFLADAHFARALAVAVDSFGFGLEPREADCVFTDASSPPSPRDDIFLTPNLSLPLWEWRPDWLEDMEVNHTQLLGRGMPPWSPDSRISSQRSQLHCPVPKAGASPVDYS

B1: anti-ROBO4 mouse monoclonal antibody MAb1 (antibody, mouse IgG1, V domains shown)
VH: EVQLVESGGGLVKPGGSLKLSCAASGFTFSTYAMSWVRQTPEKRLEWVATISNGGTYTYYPDSVKGRFTISRDNAENTLYLQMSSLRSEDTAMYFCARLIYYDYLDYWGHGTTLTVSS
VL: DAVMTQTPLSLPVSLGDQASISCRSSQSLENSNGNTYLNWYFQKPGQSPQLLIYRVSNRFSGVLDRFSGSGSGTDFTLKISRVEAEDFGVYFCLQVTHVPWTFGGGTKLEIKR
notes: Mouse IgG1 (gamma1), kappa light chain, purified from hybridoma supernatant; also called parent antibody MAb1
[1]
  binding result: binds

B2: humanized MAb1 antibody H-1143 (antibody, human IgG2, kappa, V domains shown)
VH: EVQLVESGGGLVQPGGSLRLSCAASGFTFSTYAMSWVRQAPGKGLEWVATISQGGTYTYYPDSVKGRFTISRDNAKNTLYLQMNSLRAEDTAVYYCARLIYYDYLDYWGQGTLVTVSS
VL: DIVMTQSPLSLPVTLGEPASISCRSSQSLENENKNLYLNWYLQKPGQSPQLLIYRVSNRFSGVPDRFSGSGSGTDFTLKISRVEAEDVGVYYCLQVTHVPWTFGPGTKVDIKR
notes: Human IgG2 / kappa constant regions; also called hMAb1-H2-type heavy chain + hMAb1-L2-type light chain
[2]
  binding result: binds

— patent US20150098945A1 (Daiichi Sankyo, published 2015)
